In patent US9081017 (CAMBRIDGE ENTERPRISE, dated 2015):

Biological target: T1, TRAF2 (mouse, endogenous) (mouse, UniProt P39429 2-501)
T1 construct: Endogenous protein; also called TNF-receptor associated factor 2
T1 sequence (looked up): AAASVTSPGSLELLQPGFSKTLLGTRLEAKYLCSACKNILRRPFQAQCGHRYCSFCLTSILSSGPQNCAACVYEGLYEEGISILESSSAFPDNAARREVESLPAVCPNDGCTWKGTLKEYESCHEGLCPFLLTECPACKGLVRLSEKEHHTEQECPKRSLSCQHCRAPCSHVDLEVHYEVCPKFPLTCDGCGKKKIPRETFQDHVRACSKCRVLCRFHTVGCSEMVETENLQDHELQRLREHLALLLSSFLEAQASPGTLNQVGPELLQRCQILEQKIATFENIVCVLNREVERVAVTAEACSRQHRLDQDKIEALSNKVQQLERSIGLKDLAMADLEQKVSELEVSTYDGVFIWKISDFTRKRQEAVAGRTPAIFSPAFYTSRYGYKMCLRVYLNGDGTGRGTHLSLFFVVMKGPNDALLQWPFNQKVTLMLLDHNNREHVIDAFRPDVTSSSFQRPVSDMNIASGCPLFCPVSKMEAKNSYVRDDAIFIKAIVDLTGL
Test: co-immunoprecipitation from ischemic hindlimb muscle of C57BL/6 mice

B1: TNFR2 (mouse, endogenous in hindlimb muscle of C57BL/6 mice) (receptor, UniProt P25119 23-474, looked up)
chain: VPAQVVLTPYKPEPGYECQISQEYYDRKAQMCCAKCPPGQYVKHFCNKTSDTVCADCEASMYTQVWNQFRTCLSCSSSCTTDQVEIRACTKQQNRVCACEAGRYCALKTHSGSCRQCMRLSKCGPGFGVASSRAPNGNVLCKACAPGTFSDTTSSTDVCRPHRICSILAIPGNASTDAVCAPESPTLSAIPRTLYVSQPEPTRSQPLDQEPGPSQTPSILTSLGSTPIIEQSTKGGISLPIGLIVGVTSLGLLMLGLVNCIILVQRKKKPSCLQRDAKVPHVPDEKSQDAVGLEQQHLLTTAPSSSSSSLESSASAGDRRAPPGGHPQARVMAEAQGFQEARASSRISDSSHGSHGTHVNVTCIVNVCSSSDHSSQCSSQASATVGDPDAKPSASPKDEQVPFSQEECPSQSPCETTETLQSHEKPLPLGVPDMGMKPSQAGWFDQIAVKVA
notes: Endogenous protein immunoprecipitated from muscle tissue; also called tumor necrosis factor receptor 2
B1: binds.
